From patent US20240309110A1 (DANMARKS TEKNISKE UNIVERSITET, published 2024)
Residue numbers refer to the chain shown, from its start. One block for each binder: values may come before it. No end group written: not given here.

Tests used:
[1] = molecular target: T1, MUC1 20-mer glycopeptide no. 24 of Table 5 (VTSAPDTRPAPGSAAPPAHG, Thr to Ala) (GalNAc sites are shown in bold and underlined in Table 5; the marks are lost in the text); test: glycopeptide microarray
T1 peptide: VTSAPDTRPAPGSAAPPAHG

AHGVTSAPDTR = molecular target: T2, AHGVTSAPDTR (T13 and S14 carry GalNAc (Tn), bold and underlined on the sheet); test: glycopeptide microarray (20-mer MUC1 Tn-glycopeptides printed on a chip), RFU as heat map
T2 construct: also called MUC1 20-mer glycopeptide no
T2 peptide: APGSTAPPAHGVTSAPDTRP

PAPGSTAAPAH = molecular target: T3, PAPGSTAAPAH (S13 and T14 carry GalNAc (Tn), bold and underlined on the sheet); test: as above
T3 construct: also called MUC1 20-mer glycopeptide no
T3 peptide: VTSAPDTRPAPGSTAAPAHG

[2] = molecular target: T4, MUC1 peptide no 1 (bisTn-MUC1): Btn-Ahx-SAPDTRPAPGS*T*APPAHGVTSAPD-OH (N-terminal Btn-Ahx (biotin-aminohexyl); GalNAc (Tn) on the Ser and the Thr marked * in GS*T*AP); test: glycopeptide microarray, bar chart with single points [panel C7]
T4 construct: Synthetic MUC1 glycopeptide; also called peptide 1; target peptide 1
T4 peptide: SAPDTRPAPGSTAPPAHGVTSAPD

[3] = molecular target: MUC1 20-mer glycopeptide no. 29 of Table 5 (…, no Ala substitution) (GalNAc sites are shown in bold and underlined in Table 5; the marks are lost in the text); test: glycopeptide microarray (20-mer MUC1 Tn-glycopeptides printed on a chip), RFU as heat map
Sequence of MUC1 20-mer glycopeptide no. 29 of Table 5 (…, no Ala substitution) (GalNAc sites are shown in bold and underlined in Table 5; the marks are lost in the text) (peptide, as listed by the source): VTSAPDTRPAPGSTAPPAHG

[4] = molecular target: T5, MUC1 peptide no 12 (monoSTnMUC1): GSTAP; test: glycopeptide microarray, signal as heat map
T5 construct: also called glycopeptide 12
T5 peptide: GST(Neu5Ac(a2-6)GalNAc)AP

[5] = molecular target: T4, MUC1 peptide no 1 (bisTn-MUC1): …; test: glycopeptide microarray, bar chart with single points [panel C4]
[6] = molecular target: T4, MUC1 peptide no 1 (bisTn-MUC1): …; test: glycopeptide microarray, bar chart with single points [panel D3]
[7] = molecular target: T6, MUC1 peptide no 11 (bisSTnMUC1): GSTAP (not fully specified (residue 2)); test: glycopeptide microarray, signal as heat map
T6 construct: also called glycopeptide 11
T6 peptide: GST(Neu5Ac(a2-6)GalNAc)AP

[8] = molecular target: T4, MUC1 peptide no 1 (bisTn-MUC1): …; test: glycopeptide microarray

B1: scFv 5E5 (scFv, V domains shown)
VH: QSDAELVKPGSSVKISCKASGYTFTDHAIHWVKQKPEQGLEWIGHFSPGNTDIKYNDKFKGKATLTVDRSSSTAYMQLNSLTSEDSAVYFCKTSTFFFDYWGQGTTLTVSS
VL: ELVMTQSPSSLTVTAGEKVTMICKSSQSLLNSGDQKNYLTWYQQKPGQPPKLLIFWASTRESGVPDRFTGSGSGDFTLTISSVQAEDLAVYYCQNDYSYPLTFGAGTKLELK
notes: Single chain Fv in the microarray; also called svFV 5E5
- binding result [1]: no binding
- binding result (AHGVTSAPDTR): no binding
- binding result (PAPGSTAAPAH): no binding

B2: scFv C7-STnMUC1 (scFv)
scFv: VVVTQTPLSLPVSLGDQASISCRSSQSLVHSNGNTYLHWYLQKPGQSPKLLIYKVSNRFSGVPDRFSGSGSGTDFTLKISRVEAEDLGVYFCSQSTHVPRTFGGGTKLEIKRGGGSGGGSGGGSGGGSGGGSQVQMQQSDAELVKPGASVKISCKASGYTFTDHAIHWVKRKPEQGLEWIGYISPGNDDIKYNEKFKGKATLTADKSSSTAYMQLNSLTSEDSAVYFCKRSLLALDYWGQGTTLTVSS
notes: From the STn-template library
- binding result [2]: no binding

B3: scFv 2D9Chi (scFv, V domains shown)
VH: not shown
VL: DIVMSQSPSSLAVSVGEKVTMSCKSSQSLLYSSDQKNYLAWYQQKPGQSPKLLIYWASTRESGVPDRFTGSGSGTDFTLTISSVKAEDLAVYYCQQCYSYPFTFGSGTKLERKR
notes: 2D9Chi comprises the 2D9 VL domain and G2D11 VH domain
- binding result [3]: no binding

B6: scFv D3-STnMUC1 (scFv)
scFv: IVMTQSPSSLAVSAGEKVTMSCKSSQSLLNSRTRKNYLAWYQQKPGQSPKLLIYWASTRHTGVPDRFTGSGSGTDFTLTISNVQSEDLAEYFCQQYNSYPYTFGGGTKLEIKRGGGSGGGSGGGSGGGSGGGSQVQMQQSDAELVKPGASVKISCKASGYTFTDHAIHWVKRKPEQGLEWIGYISPGNDDIKYNEKFKGKATLTADKSSSTAYMQLNSLTSEDSAVYFCKRSLLALDYWGQGTTLTVSS
notes: From the STn-template library
- binding result [6]: no binding

B7: scFv G2D11 mutant M1 (LAL) (scFv)
scFv: DVVMTQSHKFMSTSVGDRVSITCKASQDVGTAVAWYQQKPGQSPKLLIYWASTRHTGVPDRFTGSGSGTDFTLTISNVQSEDLADYFCQQYSSYPLTFGGGTKLEMKRGGGGSGGGGSGGGGSGGGGSQVQMQQSDAELVKPGASVKISCKASGYIFADHAIHWVKRKPEQGLEWIGYISPGNDDIKYNEKFKGKATLTADKSSSTAYMQLNSLTSEDSAVYFCKRSLLALDYWGQGTTLTVSS
notes: Mutant of scFv G2D11 with the mutations in the VH domain; '-' stands for the deletion of G102; also called LAL mutant M1
- binding result [4]: no binding
- binding result [7]: no binding
- binding result [8]: no binding

Further lines, results first:

- binding result [4]: no binding
B4: scFv G2D11 mutant M4 (TFT-G) (scFv)
scFv: DVVMTQSHKFMSTSVGDRVSITCKASQDVGTAVAWYQQKPGQSPKLLIYWASTRHTGVPDRFTGSGSGTDFTLTISNVQSEDLADYFCQQYSSYPLTFGGGTKLEMKRGGGGSGGGGSGGGGSGGGGSQVQMQQSDAELVKPGASVKISCKASGYTFTDHAIHWVKRKPEQGLEWIGYISPGNGDIKYNEKFKGKATLTADKSSSTAYMQLNSLTSEDSAVYFCKRSLPGTFDYWGQGTTLTVSS
notes: The only mutant without LAL; also called TFT mutation only

- binding result [5]: no binding
B5: scFv C4-STnMUC1 (scFv)
scFv: B6 scFv
notes: From the STn-template library

- binding result [8]: no binding
B8: scFv G2D11 mutant M2 (LAL-TFT) (scFv)
scFv: B7 scFv with I156T, A158T
notes: also called LAL+TFT mutant M2
